Experimental data from the supplement of paper PMC10065799, “High-throughput profiling of sequence recognition by tyrosine kinases and SH2 domains using bacterial peptide display” (eLife, 2023).

Assays:
c-Src SH2 = assay: SH2 binding enrichment of the phosphorylated peptide, bacterial display (enrichment ratio); higher = better substrate or ligand; peptides without Tyr show the background
SHP2-C SH2 = assay: as above
Grb2 SH2 = Grb2 SH2 (UniProt P62993); assay: as above
FGFR1 = FGFR1 (UniProt P11362); assay: phosphorylation enrichment, bacterial display (enrichment ratio); higher = better substrate or ligand; peptides without Tyr show the background
Jak2 = Jak2 (UniProt O60674); assay: as above
EPHB2 = EPHB2 (UniProt P29323); assay: as above
Sequence of EPHB2 (P29323 whole entry, looked up): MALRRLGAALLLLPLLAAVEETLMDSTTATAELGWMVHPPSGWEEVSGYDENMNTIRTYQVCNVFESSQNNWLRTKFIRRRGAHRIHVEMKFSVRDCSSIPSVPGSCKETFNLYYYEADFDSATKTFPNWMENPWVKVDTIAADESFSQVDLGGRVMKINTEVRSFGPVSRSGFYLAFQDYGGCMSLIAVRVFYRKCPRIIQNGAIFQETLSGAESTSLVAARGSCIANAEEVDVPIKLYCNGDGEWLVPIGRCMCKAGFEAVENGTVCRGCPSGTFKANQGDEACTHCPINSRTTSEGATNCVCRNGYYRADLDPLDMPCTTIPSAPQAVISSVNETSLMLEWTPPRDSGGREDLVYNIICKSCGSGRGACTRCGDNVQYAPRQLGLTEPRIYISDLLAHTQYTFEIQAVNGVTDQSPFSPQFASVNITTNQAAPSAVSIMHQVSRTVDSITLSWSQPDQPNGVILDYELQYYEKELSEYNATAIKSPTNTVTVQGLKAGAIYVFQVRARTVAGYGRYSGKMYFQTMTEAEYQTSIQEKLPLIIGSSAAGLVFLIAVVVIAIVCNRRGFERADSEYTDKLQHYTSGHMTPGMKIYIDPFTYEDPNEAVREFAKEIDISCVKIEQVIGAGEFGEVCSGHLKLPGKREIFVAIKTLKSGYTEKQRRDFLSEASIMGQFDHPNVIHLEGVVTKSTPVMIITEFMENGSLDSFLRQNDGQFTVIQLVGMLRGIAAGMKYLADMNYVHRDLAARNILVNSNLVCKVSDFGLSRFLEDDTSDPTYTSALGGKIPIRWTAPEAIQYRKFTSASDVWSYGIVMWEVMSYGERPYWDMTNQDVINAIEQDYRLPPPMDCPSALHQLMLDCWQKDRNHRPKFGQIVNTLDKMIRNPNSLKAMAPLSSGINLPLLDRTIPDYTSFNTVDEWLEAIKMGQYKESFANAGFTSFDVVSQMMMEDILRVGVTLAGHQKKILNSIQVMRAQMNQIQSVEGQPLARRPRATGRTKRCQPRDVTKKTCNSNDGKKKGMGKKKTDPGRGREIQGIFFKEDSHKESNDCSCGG

c-Abl (mouse) = assay: as above
MERTK = MERTK (UniProt Q12866); assay: as above
Sequence of MERTK (Q12866 whole entry, looked up): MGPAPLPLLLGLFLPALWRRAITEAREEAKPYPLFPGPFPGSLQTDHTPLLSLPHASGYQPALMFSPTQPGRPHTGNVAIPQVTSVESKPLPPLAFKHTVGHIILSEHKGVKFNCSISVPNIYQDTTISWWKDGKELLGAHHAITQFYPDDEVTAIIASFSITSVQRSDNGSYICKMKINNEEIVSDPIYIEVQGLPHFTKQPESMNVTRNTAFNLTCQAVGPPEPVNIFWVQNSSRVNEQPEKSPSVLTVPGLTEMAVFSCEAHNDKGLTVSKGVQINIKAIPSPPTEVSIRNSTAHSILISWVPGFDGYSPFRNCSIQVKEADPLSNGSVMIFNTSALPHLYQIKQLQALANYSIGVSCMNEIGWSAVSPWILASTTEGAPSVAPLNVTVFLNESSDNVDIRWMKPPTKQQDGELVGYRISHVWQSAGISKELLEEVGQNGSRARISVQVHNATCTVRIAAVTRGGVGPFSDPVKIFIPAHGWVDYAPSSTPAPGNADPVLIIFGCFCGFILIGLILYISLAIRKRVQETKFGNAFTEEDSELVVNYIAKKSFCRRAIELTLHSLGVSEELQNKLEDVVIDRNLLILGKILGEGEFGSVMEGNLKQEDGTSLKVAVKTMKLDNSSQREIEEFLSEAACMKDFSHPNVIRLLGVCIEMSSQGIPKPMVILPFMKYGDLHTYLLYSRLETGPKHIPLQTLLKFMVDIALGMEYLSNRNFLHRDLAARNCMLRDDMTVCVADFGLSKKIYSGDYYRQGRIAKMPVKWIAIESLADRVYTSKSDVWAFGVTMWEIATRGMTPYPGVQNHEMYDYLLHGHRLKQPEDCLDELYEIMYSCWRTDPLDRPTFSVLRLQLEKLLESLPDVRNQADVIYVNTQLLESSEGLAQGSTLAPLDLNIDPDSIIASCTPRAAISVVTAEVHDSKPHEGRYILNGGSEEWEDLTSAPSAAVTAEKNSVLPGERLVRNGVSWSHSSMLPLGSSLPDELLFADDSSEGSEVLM

FGFR3 = FGFR3 (UniProt P22607); assay: as above
Sequence of FGFR3 (P22607 whole entry, looked up): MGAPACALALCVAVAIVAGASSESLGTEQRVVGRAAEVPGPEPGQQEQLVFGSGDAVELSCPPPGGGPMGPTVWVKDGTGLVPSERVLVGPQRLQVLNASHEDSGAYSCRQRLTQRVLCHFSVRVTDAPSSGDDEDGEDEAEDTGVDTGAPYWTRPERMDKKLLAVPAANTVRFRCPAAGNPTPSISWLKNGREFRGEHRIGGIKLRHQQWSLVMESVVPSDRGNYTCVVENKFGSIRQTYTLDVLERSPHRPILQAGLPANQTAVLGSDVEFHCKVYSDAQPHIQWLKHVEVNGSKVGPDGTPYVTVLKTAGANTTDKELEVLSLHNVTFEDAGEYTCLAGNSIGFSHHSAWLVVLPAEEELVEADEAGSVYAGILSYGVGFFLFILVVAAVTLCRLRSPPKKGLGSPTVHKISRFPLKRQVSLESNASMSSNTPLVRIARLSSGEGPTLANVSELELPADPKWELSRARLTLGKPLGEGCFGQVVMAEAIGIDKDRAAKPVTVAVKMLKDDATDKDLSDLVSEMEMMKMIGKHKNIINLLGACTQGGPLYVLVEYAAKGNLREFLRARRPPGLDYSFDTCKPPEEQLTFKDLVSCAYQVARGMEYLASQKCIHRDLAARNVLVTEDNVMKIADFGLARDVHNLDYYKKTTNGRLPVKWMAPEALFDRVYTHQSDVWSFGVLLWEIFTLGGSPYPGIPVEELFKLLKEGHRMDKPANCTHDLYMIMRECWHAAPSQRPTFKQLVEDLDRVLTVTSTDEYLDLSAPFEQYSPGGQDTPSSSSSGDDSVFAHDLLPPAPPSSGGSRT

AncSZ = assay: as above
Hck = Hck (UniProt P08631); assay: as above
Sequence of Hck (P08631 whole entry, looked up): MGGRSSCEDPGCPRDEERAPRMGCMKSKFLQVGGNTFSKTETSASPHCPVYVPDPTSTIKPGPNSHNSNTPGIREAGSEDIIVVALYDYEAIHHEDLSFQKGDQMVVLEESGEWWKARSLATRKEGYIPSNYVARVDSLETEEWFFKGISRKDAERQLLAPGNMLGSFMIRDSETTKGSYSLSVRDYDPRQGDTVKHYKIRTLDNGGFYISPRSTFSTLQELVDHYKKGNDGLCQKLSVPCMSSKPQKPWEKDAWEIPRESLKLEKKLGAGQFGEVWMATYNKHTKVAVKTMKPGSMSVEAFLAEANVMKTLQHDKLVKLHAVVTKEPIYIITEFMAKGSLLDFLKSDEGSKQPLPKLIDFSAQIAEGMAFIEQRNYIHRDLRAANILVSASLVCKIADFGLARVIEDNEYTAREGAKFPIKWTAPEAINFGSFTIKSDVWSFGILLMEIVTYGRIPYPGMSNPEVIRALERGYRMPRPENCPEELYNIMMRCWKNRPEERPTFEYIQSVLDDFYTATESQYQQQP

Fes = Fes (UniProt P07332); assay: as above
Sequence of Fes (P07332 whole entry, looked up): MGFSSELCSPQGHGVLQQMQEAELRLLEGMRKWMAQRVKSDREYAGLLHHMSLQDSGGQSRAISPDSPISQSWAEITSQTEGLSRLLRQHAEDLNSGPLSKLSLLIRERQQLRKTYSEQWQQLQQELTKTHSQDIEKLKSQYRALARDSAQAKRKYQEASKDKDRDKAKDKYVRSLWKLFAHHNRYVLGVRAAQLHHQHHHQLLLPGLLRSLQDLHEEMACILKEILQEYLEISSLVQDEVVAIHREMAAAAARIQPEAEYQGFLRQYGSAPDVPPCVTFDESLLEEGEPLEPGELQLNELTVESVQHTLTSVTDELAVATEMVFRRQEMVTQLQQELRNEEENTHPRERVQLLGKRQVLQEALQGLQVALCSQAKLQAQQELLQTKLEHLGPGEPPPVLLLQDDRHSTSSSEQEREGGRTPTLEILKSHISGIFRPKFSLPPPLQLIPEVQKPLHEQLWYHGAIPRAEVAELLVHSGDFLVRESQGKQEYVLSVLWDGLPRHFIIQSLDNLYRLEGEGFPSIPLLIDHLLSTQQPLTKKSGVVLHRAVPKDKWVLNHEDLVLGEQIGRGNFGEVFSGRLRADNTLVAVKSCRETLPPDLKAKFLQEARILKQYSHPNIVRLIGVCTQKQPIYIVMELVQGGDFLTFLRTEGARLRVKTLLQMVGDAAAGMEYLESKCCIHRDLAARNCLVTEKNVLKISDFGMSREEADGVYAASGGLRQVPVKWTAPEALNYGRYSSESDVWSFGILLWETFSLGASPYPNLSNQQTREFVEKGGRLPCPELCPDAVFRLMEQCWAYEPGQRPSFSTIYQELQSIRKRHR

EPHB1 = EPHB1 (UniProt P54762); assay: as above
Fyn = Fyn (UniProt P06241); assay: as above
Sequence of Fyn (P06241 whole entry, looked up): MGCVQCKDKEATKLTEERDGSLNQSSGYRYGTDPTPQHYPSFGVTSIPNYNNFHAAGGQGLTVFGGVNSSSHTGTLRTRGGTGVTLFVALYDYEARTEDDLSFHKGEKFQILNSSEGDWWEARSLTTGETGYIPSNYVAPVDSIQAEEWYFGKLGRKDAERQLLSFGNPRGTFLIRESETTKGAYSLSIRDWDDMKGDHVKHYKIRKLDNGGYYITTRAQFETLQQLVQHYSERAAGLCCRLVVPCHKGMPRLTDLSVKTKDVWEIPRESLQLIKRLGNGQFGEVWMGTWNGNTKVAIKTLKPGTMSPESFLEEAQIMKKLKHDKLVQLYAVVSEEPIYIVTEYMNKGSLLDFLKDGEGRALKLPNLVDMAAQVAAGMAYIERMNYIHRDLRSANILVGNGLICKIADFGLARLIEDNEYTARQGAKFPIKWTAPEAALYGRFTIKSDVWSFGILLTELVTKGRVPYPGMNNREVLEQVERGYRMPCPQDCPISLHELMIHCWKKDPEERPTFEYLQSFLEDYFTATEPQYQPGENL

c-Src = assay: as above
Fer (mouse) = assay: as above
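Wherever SH2 binding enrichment of the phosphorylated peptide, bacterial display is given: peptide library displayed on the E. coli surface as eCPX fusions, selected cells deep-sequenced, score is each peptide's frequency after selection divided by its frequency in the input.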
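Wherever phosphorylation enrichment, bacterial display is given: 11-residue human phosphosite peptides and single-mutation variants displayed on the E. coli surface, counted by deep sequencing, each peptide's frequency after selection divided by its frequency in the unselected input library; frequency after pTyr selection over input frequency; kinase dosed for 20-30% of maximal phosphorylation in three min.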

Sequence of Grb2 SH2 (P62993 whole entry, looked up): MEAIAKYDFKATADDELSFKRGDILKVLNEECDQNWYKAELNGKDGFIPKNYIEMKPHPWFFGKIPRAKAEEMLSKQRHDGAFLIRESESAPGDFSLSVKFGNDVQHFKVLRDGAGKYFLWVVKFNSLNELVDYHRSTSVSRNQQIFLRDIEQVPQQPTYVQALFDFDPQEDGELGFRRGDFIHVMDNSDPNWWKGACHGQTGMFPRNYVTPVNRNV

Sequence	SH2 binding enrichment (c-Src SH2)	SH2 binding enrichment (SHP2-C SH2)	SH2 binding enrichment (Grb2 SH2)	phosphorylation enrichment (FGFR1)	phosphorylation enrichment (Jak2)	phosphorylation enrichment (EPHB2)	phosphorylation enrichment (c-Abl (mouse))	phosphorylation enrichment (MERTK)	phosphorylation enrichment (FGFR3)	phosphorylation enrichment (AncSZ)	phosphorylation enrichment (Hck)	phosphorylation enrichment (Fes)	phosphorylation enrichment (EPHB1)	phosphorylation enrichment (Fyn)	phosphorylation enrichment (c-Src)	phosphorylation enrichment (Fer (mouse))
AALSAYAPQRP [PTPRN2_Y249_A251P]	0.504	0.549	0.713	0.605	0.803	0.527	0.791	0.543	0.584	0.853	0.529	1.08	0.54	0.733	0.521	0.541
ACCLLYHGDVV [TUBA4A_Y319_R320H]	0.835	0.75	1.03	2.49	0.797	0.539	0.69	0.739	1.45	0.918	0.632	0.887	0.551	0.507	5.43	1.88
ACCLLYRGDVV [TUBA4A_Y319]	0.776	0.849	1.05	3.27	0.853	0.557	0.482	0.709	1.34	0.947	0.645	0.889	0.507	0.565	5.88	0.758
ACDALYPPGPP	0.632	1.11	1.07	0.482	0.615	0.432	0.566	0.43	0.522	0.774	0.391	0.861	0.485	0.482	0.444	0.469
ACQGKYTPSGQ [ALDOA_Y343]	0.551	0.75	0.843	0.406	0.851	0.402	0.693	0.378	0.734	0.598	0.46	0.742	0.414	0.479	0.463	0.531
ADEDIYGVLPA [LYNtide_2014]	0.401	0.794	1.02	0.606	1.28	1.36	2.19	2.76	0.982	1.49	3.51	1.36	0.705	4.82	2.97	2.99
ADFPDYKFRPR [SOX11_Y116_YF]	0.614	0.544	0.968	0.455	0.728	0.422	0.403	0.413	0.58	1.07	0.501	0.697	0.378	0.472	0.357	0.369
ADRARYSAFGG [RBM4_Y361]	0.55	0.58	0.78	0.35	0.482	0.303	0.546	0.4	0.394	0.5	0.381	0.523	0.371	0.41	0.397	0.424
AELKLYSGAQT [ZAP70_Y178_R175L]	0.518	0.637	0.679	0.39	0.82	0.571	0.526	0.395	0.595	0.877	0.646	0.956	0.567	0.455	0.362	0.485
AGIENYKSRFG [NKD2_Y256_T257K]	0.43	0.487	0.784	0.357	0.537	0.377	0.512	0.412	0.452	0.578	0.517	0.486	0.451	0.356	0.363	0.409
AHAGGYGAEAL [HBA1_Y25_E24G]	0.433	0.546	0.905	0.421	0.559	0.482	0.599	0.438	0.489	0.63	0.454	0.665	0.436	0.433	0.385	0.398
AHDGEYGAEAL [HBA1_Y25_A22D]	0.493	0.563	0.83	0.513	0.819	0.62	0.608	0.451	0.645	0.97	0.445	1.08	0.556	0.552	0.424	0.534
AIKSFYAALID [RYR1_Y2426_M2423K]	1.67	1.5	1.08	0.553	0.667	1.23	0.719	2.53	0.628	0.882	0.758	0.981	1.25	0.504	0.481	0.479
AIMSFYAALID [RYR1_Y2426]	0.778	1.47	0.978	0.417	1.56	0.667	1.02	0.74	0.988	1.15	0.574	1.48	1.13	0.506	0.513	0.69
AKLKDYYIFNK [CCDC42_Y149]	0.823	0.711	1	3.4	0.605	0.594	0.65	0.704	2.16	0.596	0.503	0.635	0.449	0.515	0.808	0.457
